The target of this test is CcdB, biotinylated (E. coli (F-plasmid), UniProt P62554 1-101). Nature of the test: flow cytometry on cells.
Sequence of CcdB, biotinylated (P62554 whole entry): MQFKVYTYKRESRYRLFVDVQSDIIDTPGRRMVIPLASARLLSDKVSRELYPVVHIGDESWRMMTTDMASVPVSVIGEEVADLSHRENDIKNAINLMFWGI

B1: CcdA wild type, displayed on the yeast surface (natural protein)
chain: MKQRITVTVDSDSYQLLKAYDVNISGLVSTTMQNEARRLRAERWKAENQEGMAEVARFIEMNGSFADENRDW
What is called Kd is a measure of binding affinity in units of concentration. Turning to B1, the Kd worked out at 0.25 ± 0.05 nM.

Values taken from publication doi:10.1101/2022.04.08.487678 (bioRxiv, 2022).
